The record followed here is FireProtDB (doi:10.1110/ps.0237703).

First the molecules themselves.
B1: S55N, O00095 (parent)
chain: MKFLQVLPALIPAALAQTSCDQWATFTGNGYTVSNNLWGASAGSGFGCVTAVSLSGGASWHADWQWSGGQNNVKSYQNSQIAIPQKRTVNSISSMPTTASWSYSGSNIRANVAYDLFTAANPNHVTYSGDYELMIWLGKYGDIGPIGSSQGTVNVGGQSWTLYYGYNGAMQVYSFVAQTNTTNYSGDVKNFFNYLRDNKGYNAAGQYVLSYQFGTEPFTGSGTLNVASWTASIN

In the data set the parent is B1. The settings on record: Hypocrea jecorina; pH 8; Thermal; CD; Bis-Tris propane ammonium acetate 0.05 M 0.05 M; reversible: No; structure 1H8V; whole UniProt chain shown.

As for S55N, the Tm worked out at 54.9 °C and the “change of melting temperature, mutant - wild type (higher = more stable)” value (“change of melting temperature, mutant” for short) amounted to 0.5 °C.
N183S: the Tm is 54.6 °C and the “change of melting temperature, mutant” value was 0.2 °C.
Take S79V: the Tm came to 53.6 °C and the “change of melting temperature, mutant” value is -0.8 °C.
On the same counts, the results for W23Y are 53.4 °C and -1 °C.
On the same counts, the results for N107D are 54.9 °C and 0.5 °C.
On the same counts, the results for T179S are 54.7 °C and 0.3 °C.
For the variant G57A, the Tm is 56.9 °C and the “change of melting temperature, mutant” value came out at 2.5 °C.
T27S T32I: the melting temperature (Tm) is 55.5 °C and the “change of melting temperature, mutant” value was 1.1 °C.
On the same counts, the results for S159T are 54.9 °C and 0.5 °C.
As to A204G, the Tm is 54.9 °C and the “change of melting temperature, mutant” value amounted to 0.5 °C.
As for S93G, the Tm is 54.5 °C and the “change of melting temperature, mutant” value worked out at 0.1 °C.
As for A82N, the Tm came to 54.5 °C and the “change of melting temperature, mutant” value came out at 0.1 °C.
On the same counts, the results for A51S are 50.4 °C and -4 °C.
With A51V, the Tm was 62.1 °C and the “change of melting temperature, mutant” value came out at 7.7 °C.

By Tm is commonly meant the temperature at which the thermal transition is half complete.
